Binding signal data for one sequence are collected here from patent publication US5861501.

The data set deals with influenza endonuclease (purified viral ribonucleoprotein, low-pH treated; polymerase-associated cap-dependent endonuclease) (Influenza virus). As to the kind of experiment: competition. Particulars: 5'-triphosphate; 2'-OMe on G1; 3'-terminal 3'-dA; filter retention competition; binding is cap dependent; scale: % of labeled capped 10-mer binding competed at up to 150 nM.

“GUAUUAAUAA [5'-triphosphorylated 10-mer (uncapped)]” had a binding signal of 10.
